Source: publication doi:10.1101/2024.07.10.602906

Columns and labels:
[1] = target: GV CW1 murine norovirus VP1 P-domain (wild type) (murine norovirus (GV, MNV-1 CW1)) (UniProt Q80J95); test: methyl TROSY NMR
[2] = target: GV CW1 murine norovirus VP1 P-domain (wild type) (murine norovirus (GV, MNV-1 CW1)) (UniProt Q80J95); test: NMR titration

Q: How did the percent dimers at pH* 5.3 [1] turn out when “GV CW1 murine norovirus VP1 P-domain (wild type) (from UniProt Q80J95 228-530) (domain or fragment)” was run?
A: The percent dimers at pH* 5.3 was over 70%.

Q: And the percent monomers at pH 7.4 [1]?
A: The percent monomers at pH 7.4 was 70%.

Q: What about the Kd [2] of the same substance?
A: The Kd was 45 µM.

Q: And the koff [2]?
A: Its koff is 4.7 s⁻¹.
